The target in one data set is LL-37 (…) (human). Nature of the data set: cell-based or functional assay.
The target in data set [1] is oligopeptide-10 (HB64), …-NH2. Nature of the data set: cell-based or functional assay.
The test system of data set [2] is T1, oligopeptide-10 (HB64), FAKALKALLKALKAL-NH2.
T1 sequence: FAKALKALLKALKAL

For data set [3], the system named is LL-37 (LLGDFFRKSKEKIGKEFKRIVQRIKDFLRNLVPRTES).
The target in data set [4] is hexapeptide-21 (HB168), FALLKL-NH2. Nature of the data set: cell-based or functional assay.
Data set [5] deals with HB1345, decanoyl-KFKWPW-NH2. Nature of the data set: cell-based or functional assay.

For chymotrypsin (Sigma-Aldrich) (enzyme), the Survival of peptide (1 mg/mL) with chymotrypsin 22 µg/mL, no inhibitor, LC/MS, Expt. 39 with LL-37 (…) (human) is less than 1 h. Moreover, the Survival of peptide (1 mg/mL) with chymotrypsin 25 µg/mL, no inhibitor, LC/MS, Expt. 34 in data set [1] is less than 1 h.

In data set [1], elastase (Sigma-Aldrich) (enzyme) registered a Survival of peptide (1 mg/mL) with elastase 25 µg/mL, no inhibitor, LC/MS, Expt. 22 of less than 1 h.

Consider kallikrein (Sigma-Aldrich) (enzyme), for which, in the data set with LL-37 (…) (human), the Survival of peptide (1 mg/mL) with kallikrein 22 µg/mL, no inhibitor, LC/MS, Expt. 41 is less than 4 h; the Survival of peptide (1 mg/mL) with kallikrein 22 µg/mL, no inhibitor, LC/MS, Expt. 47 was less than 4 h; the Survival of peptide (1 mg/mL) with kallikrein 22 µg/mL, no inhibitor, LC/MS, Expt. 49 was less than 1 h; the Survival of peptide (1 mg/mL) with kallikrein 22 µg/mL, no inhibitor, LC/MS, Expt. 55 is less than 1 h. In data set [1], this substance had a Survival of peptide (1 mg/mL) with kallikrein 25 µg/mL, no inhibitor, LC/MS, Expt. 27 of less than 24 h.

On to plasmin (Sigma-Aldrich), for which the “TIC and XIC traces (LC/MS) after a 4-hour exposure” value in data set [2] is “while most of the HB64 peptide was degraded, some parent peptide could still be detected”. Further, in data set [3], the “TIC trace and mass spectrum (LC/MS) after 1-hour incubation” value is listed as “the molecular weight of parent peptide LL-37 was undetectable”.

For the substance plasmin (Sigma-Aldrich) (enzyme), in the data set with LL-37 (…) (human), the Survival of peptide (1 mg/mL) with plasmin 22 µg/mL, no inhibitor, LC/MS, Expt. 37 was less than 1 h and the Survival of peptide (1 mg/mL) with plasmin 22 µg/mL, no inhibitor, LC/MS, Expt. 38 is less than 45 min. In addition, in data set [1], the Survival of peptide (1 mg/mL) with plasmin 20 µg/mL, no inhibitor, LC/MS, Expt. 45 was less than 4 h; the Survival of peptide (1 mg/mL) with plasmin 25 µg/mL, no inhibitor, LC/MS, Expt. 25 is less than 4 h; the Survival of peptide (1 mg/mL) with plasmin 25 µg/mL, no inhibitor, LC/MS, Expt. 30 was less than 6 h; the Survival of peptide (1 mg/mL) with plasmin 46 µg/mL, no inhibitor, LC/MS, Expt. 32 was less than 4 h.

For the substance trypsin (Sigma-Aldrich), in data set [2], the “TIC traces (LC/MS) of peptide degradation at time zero, 1 hour and 23 hours” value was “the parent peak (represents the full-length, non-degraded peptide) in the TIC traces was reduced over time and peaks for various breakdown products increased in intensity over time”.

In data set [4], trypsin (Sigma-Aldrich) (enzyme) came in with a Survival of peptide (1 mg/mL) with trypsin 25 µg/mL, no inhibitor, LC/MS, Expt. 6 of less than 1 h. This substance yielded a Survival of peptide (1 mg/mL) with trypsin 25 µg/mL, no inhibitor, LC/MS, Expt. 8 in data set [5] of less than 1 h. In data set [1], the Survival of peptide (1 mg/mL) with trypsin 25 µg/mL, no inhibitor, LC/MS, Expt. 4 was less than 1 h; the Survival of peptide (1 mg/mL) with trypsin 25 µg/mL, no inhibitor, LC/MS, Expt. 10 was less than 1 h; the Survival of peptide (1 mg/mL) with trypsin 25 µg/mL, no inhibitor, LC/MS, Expt. 12 is less than 1 h.

For the substance urokinase (enzyme), in the data set with LL-37 (…) (human), the Survival of peptide (1 mg/mL) with urokinase 22 µg/mL, no inhibitor, LC/MS, Expt. 51 was less than 24 h and the Survival of peptide (1 mg/mL) with urokinase 22 µg/mL, no inhibitor, LC/MS, Expt. 53 was less than 24 h.

These data come from US20090142280A1.
